Data taken from patent publication US20150231240A1, “ANTI-C16ORF54 ANTIBODIES AND METHODS OF USE THEREOF” (priority 2012, published 2015).

Legend:
C16orf54 ECD peptides = test: Peptide crossblocking (Table 36); type: binding
human C16orf54 = biological target: T1, human C16orf54 (Homo sapiens, UniProt Q6UWD8); test: Flow cytometry reactivity with sarcoma cells expressing human C16orf54 (fold change over isotype); type: binding
T1 construct: expressed in transfected cells; host or cells: murine sarcoma cells (D42M1-huC16orf54)
T1 sequence (Q6UWD8 1-224): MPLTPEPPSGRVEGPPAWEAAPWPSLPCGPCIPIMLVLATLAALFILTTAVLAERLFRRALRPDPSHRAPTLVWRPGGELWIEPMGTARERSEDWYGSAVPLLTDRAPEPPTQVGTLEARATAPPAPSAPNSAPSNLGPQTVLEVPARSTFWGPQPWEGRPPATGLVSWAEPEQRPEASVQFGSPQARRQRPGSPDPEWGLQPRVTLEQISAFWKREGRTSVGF
Experimental: (§1) Anti-C16orf54 antibodies which bound to human C16orf54 were tested for their reactivity with human C16orf54 and their crossreactivity with C16orf54 from cynomolgous monkeys (cyno C16orf54) using flow cytometry. Sarcoma cells transfected with and expressing human C16orf54 or cyno C16orf54 were washed with PBS with 0.1% BSA, incubated with FcX receptor blocking solution (BioLegend) for 15 minutes, incubated with 10 μg/ml of anti-C16orf54 antibody for 1 hour at 4° C., washed twice with PBS with 0.1% BSA, incubated with 20 μg/ml of R-Phycoerythrin-AffiniPure F(ab′)2 Fragment Goat Anti-Mouse IgG, Fcγ Fragment Specific (Jackson ImmunoResearch) for 30 minutes at 4° C., washed twice with PBS with 0.1% BSA, incubated with the viability dye TO-PRO-3 iodide (Life Technologies), and immediately analyzed on a MACSQuant Analyzer instrument (Miltenyi). For each cell line and anti-C16orf54 antibody, a fold change was derived by dividing the median fluorescence intensity for Phycoerythrin in the live cell population for the anti-C16orf54 antibody by the median fluorescence intensity for Phycoerythrin in the live cell population for the IgG isotype control antibody.

[1] = biological target: T2, human C16orf54 extracellular domain peptides (Homo sapiens, UniProt Q6UWD8); test: C16orf54 peptide ELISA, human extracellular domain peptides; type: binding; settings: peptide ELISA, 10 μg/ml antibody
T2 sequence (Q6UWD8 1-31): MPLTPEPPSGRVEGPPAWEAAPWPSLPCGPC
Experimental: (§2) Anti-C16orf54 antibodies which bind to human C16orf54, including antibodies that are crossreactive with cyno C16orf54, were tested for their binding to various peptides derived from C16orf54 in a peptide ELISA. A 384-well high binding black microplate (Greiner) was incubated with 2 μg/ml of protein (human, cyno, or mouse extracellular domain peptides) for 16 hours, incubated for 1 hr with a blocking buffer (PBS with 5% Fetal Bovine Serum), washed four times with TBS with Tween, incubated for 1 hour with 10 μg/ml of anti-C16orf54 antibody, washed four times with TBS with Tween, incubated for 1 hour with 10 μg/ml of Peroxidase-AffiniPure Goat Anti-Mouse IgG, Fcγ Fragment Specific (Jackson ImmunoResearch), washed four times with TBS with Tween, and peroxidase was detected with a luminometer (Molecular Devices) upon addition of SuperSignal® ELISA Pico Chemiluminescent Substrate (Thermo Scientific). The luminescence signal was determined.

[2] = test system: human C16orf54 extracellular domain peptides; test: as above; type: binding; settings: human, cyno, or mouse extracellular domain peptides, not told apart; 10 μg/ml antibody
Experimental: as §2

[3] = test system: cyno C16orf54 extracellular domain peptides; test: C16orf54 peptide ELISA, cyno extracellular domain peptides; type: binding; settings: 10 μg/ml antibody
Experimental: as §2

[4] = biological target: T3, extracellular domain of c16orf54 (amino acids 1-31) fused to human IgG1 Fc (Homo sapiens, UniProt Q6UWD8); test: C16orf54 peptide-Fc fusion protein ELISA; type: binding; settings: serial dilution of antibody; HRP-conjugated anti mouse secondary
T3 construct: the extracellular domain of c16orf54 (amino acids 1-31) either N terminal or C-terminal to a human IgG1 Fc domain; made in house; host or cells: 293 T cells, transient; Protein A purification
T3 sequence (Q6UWD8 1-31 limits assumed): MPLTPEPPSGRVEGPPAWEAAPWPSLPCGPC
Experimental: Anti-C16orf54 antibodies which bind to human C16orf54, including antibodies that are crossreactive with cyno C16orf54, were tested for their binding to various peptides derived from C16orf54 that were fused to human IgG (e.g., IgG1) constant regions to generate various peptide-Fc fusion proteins in an Fc-based ELISA. An exemplary Fc sequence comprises an IgG1 Hinge region sequence and IgG1 CH3 and […] domain sequences.
The fusion proteins were transiently expressed in 293 T cells. Protein was purified from the 293 expression supernatants by Protein A-based affinity purification. Exemplary C16 peptide-Fc fusion constructs that were made and purified are shown with their protein yield in Table 38. ELISA assays were performed by coating 384 well plates with the fusion proteins overnight at 4C. Antibodies were analyzed by serial dilution with concentrations ranging from 40 ug/mL to […]. Binding was detected with an HRP-conjugated anti mouse secondary antibody.

cyno C16orf54 = test: Flow cytometry cross-reactivity with sarcoma cells expressing cyno C16orf54 (fold change over isotype); type: binding, cynomolgous monkeys; settings: 10 μg/ml antibody
Experimental: as §1

[5] = biological target: T4, N-terminal 32 amino acids of huC16orf54 (Homo sapiens, UniProt Q6UWD8); test: Affinity measurements of purified antibodies on OctetQK384; type: binding; settings: purified antibody, streptavidin sensors coated with N-terminal 32 amino acids of huC16orf54 coupled to biotin
T4 sequence (Q6UWD8 1-32 limits assumed): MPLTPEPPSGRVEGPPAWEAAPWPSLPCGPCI
Experimental: Affinity measurements of purified anti-huC16orf54 antibodies were carried out on the OctetQK384® sytem (ForteBio). After coating streptavidin sensors with the N-terminal 32 amino acids of huC16orf54 coupled to biotin at the C-terminus, association and dissociation of purified anti-huC16orf54 antibodies was monitored. KD values were derived using ForteBio's software.

[6] = biological target: T5, huC16orf54 (cells expressing C16orf54) (Homo sapiens, UniProt Q6UWD8); test: Competition ELISA to establish relative binding properties; settings: hybridoma supernatant; 2 hours with competing mixture of antibodies of a different isotype
T5 construct: expressed in transfected cells; host or cells: murine sarcoma cell line, retrovirally transduced (inferred from b529 and b531; b587 says only 'cells expressing C16orf54')
T5 sequence (Q6UWD8 1-224): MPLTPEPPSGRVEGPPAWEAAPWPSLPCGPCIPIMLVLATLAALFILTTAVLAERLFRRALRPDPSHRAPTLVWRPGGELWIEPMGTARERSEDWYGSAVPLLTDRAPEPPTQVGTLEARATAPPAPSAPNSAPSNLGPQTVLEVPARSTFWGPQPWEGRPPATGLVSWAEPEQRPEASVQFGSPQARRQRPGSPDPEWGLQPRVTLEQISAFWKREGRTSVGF
Experimental: Another competition ELISA was performed to establish relative binding properties. Individual anti-huC16orf54 isotyped (e.g., IgG2a) antibody containing hybridoma supernatants were allowed to bind to huC16orf54 in individual wells of an ELISA plate containing cells expressing C16orf54. After 30 min, the wells were washed. Then individual wells of the ELISA plate were incubated for 2 hours with either buffer or a competing mixture of anti-huC16orf54 isotyped antibodies (of a different isotype, e.g., IgG1 and IgG2b in the case of an IgG2a antibody). After washing, the wells were incubated with a specific secondary antibody (for example, Jackson Immunologicals Goat×IgG2a HRP—Product#115-035-206) and detected with SuperSignal® ELISA Pico Chemiluminescent substrate (Thermo Scientific—Product#37069). For each anti-huC16orf54 isotyped (e.g., IgG2a) antibody containing hybridoma supernatant, relative binding properties were calculated as follows: [(Average luminescence in wells incubated with buffer)−(Average luminescence in wells incubated with mixture of anti-huC16orf54 isotyped antibodies of a different isotype)]/[(Average luminescence in wells incubated with buffer)].

[7] = test system: KG-1 (acute myeloid leukemia) xenograft; type: in vivo, NOD-SCID mice
Experimental: Subcutaneous tumors are generated by injection of 1×10^7 cancer cells in a mixture of PBS (without magnesium or calcium) and BD Matrigel™ (BD Biosciences) at a 1:1 ratio in the right flank of female SCID or nu^−/− mice. The injected total volume per mouse is […] with 50% being Matrigel (BD Biosciences). Mice are randomized once tumors reach a size between 65-200 mm^3. Antibodies are administered weekly, and body weights and tumors are measured once and twice weekly, respectively. Tumor volume is calculated as described (van der Horst et al. (2009) Neoplasia 11: 355-364). As a negative control, mice are injected with either purified mouse IgG or PBS; or a purified monoclonal antibody that recognizes an antigen other than C16orf54.
Anti-C16orf54 antibodies were tested for their anti-tumor activity in an animal-tumor model. For these studies, the cell line KG-1 (acute myeloid leukemia) was obtained from ATCC and cultured according to the suppliers' protocols. Animals were obtained from Taconic (Hudson, N.Y.). Studies were conducted with anti-C16orf54 antibodies and antibody-drug conjugates (ADCs) of these antibodies.
In these experiments, 4-6 week-old immunodeficient NOD-SCID female mice were used for the KG-1 tumor model. Mice were subcutaneously injected on the right flank with 6×10^6 viable cells (KG-1) in a mixture of PBS (without magnesium or calcium) and BD Matrigel™ (BD Biosciences). Once the tumor reached a size between 65-200 mm^3 mice were randomized. Anti-C16orf54 antibodies were administered weekly, and bodyweights and tumors were measured once and twice weekly, respectively. Tumor volume was calculated as described (van der Horst et al., supra). Experiments were performed on groups of at least eight animals per experimental point.
Statistical significance between treatment and control groups was calculated using the Graphpad Prism® software package and applying Student's two-tailed t-test. A p-value of less than 0.05 was considered significant.

[8] = biological target: T4, N-terminal 32 amino acids of huC16orf54; test: Off-rate screen of hybridoma supernatants on OctetQK384 (biolayer interferometry); type: binding; settings: calculated off-rate
Experimental: Eight anti-huC16orf54 monoclonal antibodies were further screened for binding and subsequent off-rate analysis using the OctetQK384® sytem (ForteBio). Hybridoma supernatants were screened for association to and dissocation from streptavidin sensors coated with the N-terminal 32 amino acids of huC16orf54 coupled to biotin, and the calculated offrates (kdis) are shown in Table 31. Cloned hybridomas with […] off-rates were carried forward for antibody purification.

cyno C16orf54, sequence (as listed by the source): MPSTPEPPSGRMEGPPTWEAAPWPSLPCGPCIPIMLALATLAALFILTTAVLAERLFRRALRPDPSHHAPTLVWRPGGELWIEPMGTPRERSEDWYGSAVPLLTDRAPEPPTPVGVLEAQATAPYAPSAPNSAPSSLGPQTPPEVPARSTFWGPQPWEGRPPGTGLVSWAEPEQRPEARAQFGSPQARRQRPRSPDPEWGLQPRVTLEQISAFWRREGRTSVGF
cyno C16orf54 extracellular domain peptides, sequence (as listed by the source): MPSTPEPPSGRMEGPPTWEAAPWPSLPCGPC

B1: R29-8-75B: murine anti-C16orf54 monoclonal antibody; VH SEQ ID NO: 56, VL SEQ ID NO: 58 (antibody, V domains shown)
VH: MDSRLNLVFLVLILKGVQCDVQLVESGGGLVQPGGSRKLSCAASGFTFSRFGMHWVRQAPEKGLEWVAYISSGSSTIYYADTVKGRFTISRDNPKNTLFLQMTSLRSEDTAMYYCARVDYDVALAYWGQGTLVTVSA
VL: MKLPVRLLVLMFWIPASSSGVLMTQTPLSLPVSLGDQASISCRSSQSIVHRNGNTYLEWYLQKPGQSPKLLIYKVSNRFSGVPDRFSGSGSGTDFTLKISRVEAEDLGVYYCFQGSQWTFGGGTKLEIK
modifications: R29-8-75B heavy chain variable region; R29-8-75B light chain variable region
- Peptide crossblocking (C16orf54 ECD peptides): aa1-31, aa9-24
- binding to C16orf54-expressing cells (dual binders) (human C16orf54): bind to C16orf54-expressing cells
- Human ECD & ECD fragments bound by antibody [1]: aa1-31, aa1-15, aa9-24
- binding to peptides derived from the extracellular domain of C16orf54 (peptide ELISA) [2]: bind to the various peptides derived from the extracellular domain (ECD) of C16orf54
- Cyno ECD bound by antibody [3]: aa1-31
- binding to peptide-Fc fusion proteins (Fc-based ELISA) [4]: able to bind to the peptide-Fc fusion proteins

B2: R29-8-58C: murine anti-C16orf54 monoclonal antibody; VH SEQ ID NO: 40, VL SEQ ID NO: 42 (antibody, V domains shown)
VH: MNFGFSLIFLVLVSKGVQCEVKLVESGGGLVKPGGSLKFSCAASGFTFSSYAVSWVRQTPEKRLEWVASITSGGRSYYPDSVKGRFTISRDNARSMLYLHMSSLRSEDTAMYYCTRGWDENDLWGQGTTLTVSS
VL: MKLPVRLLVLMFWIPASSSDVVMTQTPLSLFVSLGDQASISCRSSQSLLYSNGNTYLHWYLQRPGQSPQLLIYKVSNRFSGVPDRFSGSGSGTDFTLKISRVEAEDLGVYFCSQTTHVPWTFGGGTKLEIK
modifications: R29-8-58C heavy chain variable region; R29-8-58C light chain variable region
- Median fold change relative to IgG control in F279-cyno-C16orf54 cells (cyno C16orf54): 1.4

B3: R29-7-2A: murine anti-C16orf54 monoclonal antibody, IgG2b; VH SEQ ID NO: 4, VL SEQ ID NO: 6 (antibody, V domains shown)
VH: MLLGLKWVFFVVFYQGVPCEVQLVESGGGLIQPKGSLKLSCVASGFSFNTHAMNWVRQAPGKGLEWVARIRSKSNNYARYYADSVKDRFTISRDDSQSILYLQMNNLKTEDTAMYYCVKQGDGGFAYWGQGTLVTVSA
VL: MDSQAQVLMLLLLWVSGTCGDIVMSQSPSSLAVSVGEKVTMSCKSSQSLLYSSNQKNYLAWYQQRPGQSPKLLIYWASARESGVPDRFTGSGSGTDFTLTISSVKAEDLAVYYCQQYYSYPPTFGAGTKVELK
modifications: R29-7-2A heavy chain variable region; R29-7-2A light chain variable region
- kdis [5]: 4.12e-05 ± 9.7e-06 s⁻¹
- kon [5]: 31900 ± 4600 M⁻¹ s⁻¹
- relative binding properties: signal loss upon incubation with competition mixture [6]: little signal loss upon incubation with the competition mixture
- Peptide crossblocking (C16orf54 ECD peptides): aa1-31
- binding to C16orf54-expressing cells (dual binders) (human C16orf54): bind to C16orf54-expressing cells
- binding to human C16orf54 (flow cytometry) (human C16orf54; sarcoma cells expressing human C16orf54, 10 μg/ml antibody): bind human C16orf54
- tumor growth inhibition (in words) ([7]; KG-1 xenograft, compared to control IgG, antibodies weekly): did not induce any statistically significant tumor growth inhibition
- TGI (tumor growth inhibition) ([7]; Table 42, KG-1 AML model, NOD-SCID mice, weekly administration): −17%
- Mean (tumor volume) ([7]; Table 42, KG-1 AML model, NOD-SCID mice, weekly administration, in mm³ (unit assumed)): 2572.5
- Human ECD & ECD fragments bound by antibody [1]: aa1-31, aa1-15, aa9-24
- binding to peptides derived from the extracellular domain of C16orf54 (peptide ELISA) [2]: bind to the various peptides derived from the extracellular domain (ECD) of C16orf54
- kdis [8]: 0.00707 s⁻¹
